The values below come from patent US20210145976A1.

Substitutions are numbered along the chain they refer to.

To fix the notation:
B1: SEQ ID NO 298 (designed binder)
chain: MLPAPKNLVVSRVTEDSARLSWTAPDAAFDSFPIAYAEPRPDGEAIVLTVPGSERSYDLTGLKPGTEYSVLIHGVKGGLLSSPLSAISTT
B2: SEQ ID NO 81 (designed binder)
chain: MLPAPKNLVVSRVTEDSARLSWTAPDAAFDSFVIEYREGAWYGEAIVLTVPGSERSYDLTGLKPGTEYAVYIPGVKGGPRSFPLSAIFTT
B3: SEQ ID NO 82 (designed binder)
chain: MLPAPKNLVVSRVTEDSARLSWTAPDAAFDSFAIAYVEWWKLGEAIVLTVPGSERSYDLTGLKPGTEYVVPIPGVKGGGHSSPLSAIFTT
B4: SEQ ID NO 297 (designed binder)
chain: MLPAPKNLVVSRVTEDSARLSWTAPDAAFDSFLIPYAETSPSGEAITLFVPGSERSYDLTGLKPGTEYNVVIQGVKGGRPSNPLVAASTT
B5: SEQ ID NO 302 (designed binder)
chain: MLPAPKNLVVSRVTEDSARLSWTAPDAAFDSFDIYYPEYYDRGEAIVLTVPGSERSYDLTGLKPGTEYTVYIDGVKGGGGSGPLSAIFTT
B6: SEQ ID NO 308 (designed binder)
chain: MLPAPKNLVVSEVTEDSARLSWQGVARAFDSFLITYREQIFAGEVIVLTVPGSERSYDLTGLKPGTEYPVWIQGVKGGSPSAPLSAISTT
B7: SEQ ID NO 307 (designed binder)
chain: MLPAPKNLVVSRVTEDSARLSWTAPDAAFDSFPITYSEPAHYGEAIVLTVPGSERSYDLTGLKPGTEYHVGIMGVKGGVFSSPLSAIFTT
B8: SEQ ID NO 305 (designed binder)
chain: MLPAPKNLVVSRVTEDSARLSWTAPDAAFDSFEIDYDEPFVYGEAIVLTVPGSERSYDLTGLKPGTEYRVFIFGVKGGNGSWPLSAIFTT
B9: SEQ ID NO 300 (designed binder)
chain: MLPAPKNLVVSRVTEDSARLSWTAPDAAFDSFFIGYLEPQPPGEAIVLTVPGSERSYDLTGLKPGTEYNVTIHGVKGGTPSMPLSAIFTT
B10: SEQ ID NO 303 (designed binder)
chain: B9 chain with G35A, L37F, P39F, Q40A, P41N, N69K, T71V, H73Q, M82E
B11: SEQ ID NO 34 (designed binder)
chain: MLPAPKNLVVSRVTEDSARLSWTAPDAAFDSFAITYIEWWDVGEAIGLKVPGSERSYDLTGLKPGTEYRVHIQGVKGGNNSYPLDALFTT
B12: SEQ ID NO 61 (designed binder)
chain: MLPAPKNLVVSRVTEDSARLSWRVESRTFDSFLIQYQESEKVGEAIVLTVPGSERSYDLTGLKPGTEYTVSIYGVVWDTRDNPISNPLSAIFTT
B13: SEQ ID NO 57 (designed binder)
chain: MLPAPKNLVVSRVTEDSARLSWTAPDAAFDSFSIKYLEWWQDGEAIVLTVPGSERSYDLTGLKPGTEYYVHIAGVKGGYRSYPLSAIFTT
B14: SEQ ID NO 309 (designed binder)
chain: B13 chain with S33I, K35D, W39L, W40D, D42E, Y69A, H71Y, A73F, R80P, Y82T
B15: SEQ ID NO 299 (designed binder)
chain: MLPAPKNLVVSRVTEDSARLSWTAPDAAFDSFLIEYWESVGYGEAIVLTVPGSERSYDLTGLKPGTEYWVGIYGVKGGYYSRPLSAIFTT
B16: SEQ ID NO 306 (designed binder)
chain: B15 chain with L33Y, W37F, S39T, V40Q, W69Y, G71A, Y80L
B17: SEQ ID NO 301 (designed binder)
chain: MLPAPKNLVVSRVTEDSARLSWTAPDAAFDSFEIEYDEPYRGGEAIVLTVPGSERSYDLTSLKPGTEYPVSIGGVKGGITSDPLSAIFTT
B18: SEQ ID NO 60 (designed binder)
chain: MLPAPKNLVVSRVTEDSARLSWTAPDAAFDSFTIWYAEAIGHGEAIVLTVPGSERSYDLTGLKPGTEYWVDIWGVKGGQQSKPLSAIFTT
B19: SEQ ID NO 280 (designed binder)
chain: B17 chain with S11R, R12X
modifications: X: residue not identified in the source; also: C-terminal poly-His tag, letters not given here

Chain of human serum albumin (human) (P02768 25-609 limits assumed): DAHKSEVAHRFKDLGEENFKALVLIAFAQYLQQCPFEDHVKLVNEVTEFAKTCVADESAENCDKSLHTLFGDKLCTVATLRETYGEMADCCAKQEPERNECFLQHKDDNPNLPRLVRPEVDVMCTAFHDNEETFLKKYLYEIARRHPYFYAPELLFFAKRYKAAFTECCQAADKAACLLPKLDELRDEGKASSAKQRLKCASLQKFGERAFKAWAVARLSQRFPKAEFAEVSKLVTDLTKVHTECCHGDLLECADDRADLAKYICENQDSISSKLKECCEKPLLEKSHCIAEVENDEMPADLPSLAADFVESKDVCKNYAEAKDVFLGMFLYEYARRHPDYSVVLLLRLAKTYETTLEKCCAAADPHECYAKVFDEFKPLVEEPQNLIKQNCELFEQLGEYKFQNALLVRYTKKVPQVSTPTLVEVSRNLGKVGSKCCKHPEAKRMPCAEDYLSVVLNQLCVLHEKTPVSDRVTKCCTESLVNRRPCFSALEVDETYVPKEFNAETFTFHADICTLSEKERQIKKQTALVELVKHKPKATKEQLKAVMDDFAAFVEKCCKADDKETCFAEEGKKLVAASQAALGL

The first test concerns the target human serum albumin (human) (UniProt P02768). Kind of test: screening ELISA.
B1 came in with an HSA of 34000.

On to B2, for which the HSA amounted to 28600.

For the molecule B3, the HSA amounted to 18900.

The molecule B4 had an HSA of 52600.

The molecule B5 showed an HSA of 21200.

As for B6, the HSA is 12300.

Take B7: the HSA worked out at 4350.

With B8, the HSA turned out to be 25000.

Regarding B9, the HSA is 4050.

As for B10, the HSA came out at 2650.

For B11, the HSA amounted to 25900.

Molecule B12 displayed an HSA of 10600.

In turn, B13 returned an HSA of 16900.

For B14, the HSA stood at 2850.

On to B15, for which the HSA worked out at 2200.

With B16, the HSA was 2250.

As to B17, the HSA amounted to 12000.

The molecule B18 registered an HSA of 6480.

For another test, the target named is T1, recombinant biotinylated CD71 extracellular domain (Sino Biologics) with an N-terminal 6His tag (human), P02786. The test is described as follows: screening ELISA.
T1 sequence (P02786 other isoform, or with tags, fused parts or gaps): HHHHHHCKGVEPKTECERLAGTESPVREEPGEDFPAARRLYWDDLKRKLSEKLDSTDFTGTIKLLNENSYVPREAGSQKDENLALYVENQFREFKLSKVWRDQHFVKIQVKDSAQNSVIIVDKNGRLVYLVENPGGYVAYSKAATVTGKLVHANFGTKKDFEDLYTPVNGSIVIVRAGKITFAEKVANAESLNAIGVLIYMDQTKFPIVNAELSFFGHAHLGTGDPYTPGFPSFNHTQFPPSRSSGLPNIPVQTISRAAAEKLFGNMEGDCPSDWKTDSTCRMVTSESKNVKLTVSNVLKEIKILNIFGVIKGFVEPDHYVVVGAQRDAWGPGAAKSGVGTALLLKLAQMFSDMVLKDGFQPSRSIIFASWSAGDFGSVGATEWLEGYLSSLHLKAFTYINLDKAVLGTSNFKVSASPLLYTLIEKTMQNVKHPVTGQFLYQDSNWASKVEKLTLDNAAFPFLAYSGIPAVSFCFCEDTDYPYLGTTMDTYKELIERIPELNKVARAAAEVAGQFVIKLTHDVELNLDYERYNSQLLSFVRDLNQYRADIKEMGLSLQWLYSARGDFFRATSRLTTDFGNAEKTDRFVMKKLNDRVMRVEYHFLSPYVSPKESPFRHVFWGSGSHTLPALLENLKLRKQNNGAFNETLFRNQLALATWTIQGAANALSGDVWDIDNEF
B19: the hCD71 amounted to 446000.

For the next test, the target named is T1, recombinant biotinylated CD71 …. Kind of test: screening ELISA, ratio. (An ELISA detects its analyte on a solid surface through an enzyme-linked reagent.)
Turning to B19, the hCD71:HSA is 21.
